Experimental findings from patent US6875581 (GENOPIA BIOMEDICAL, dated 2005) are described below.

Where no end group is shown, it is not given here. [ ]: non-standard residue; d: D form. pS = N[C@@H](COP(=O)(O)O)C(=O)O

The target of experiment [1] is T1, calcineurin-A-beta1/calcineurin-B (human, UniProt P16298 2-524; P63098 1-170).
T1 construct: also called CNAb1-pQE30 product
In words: laser fluorescence correlation spectroscopy (FCS).

Experiment [2] concerns the target T2, calcineurin-A-beta2/calcineurin-B (human, UniProt P16298 2-524; P63098 1-170).
T2 construct: also called CNAb2-pQE30 product
In words: laser fluorescence correlation spectroscopy (FCS).

B1: RII-Fluophos (peptide)
peptide: DLDVPIPGRFDRRV[pS](fluorescein)VAAE
notes: Synthetic peptide; It was not converted by calcineurin; also called Fluophos-RII-peptide; fluorescent labeled RII-peptide
Turning to B1, the binding result in experiment [1] and in experiment [2] was “binds” each time.
